Two substances from patent US20240075105A1 can be followed below.

For the assay, the target named is the cell surface receptor (of interleukin-2) on CTLL-2 cells. The assay can be described thus: cell-based or functional assay.

Take “recombinant human interleukin-2/serum albumin fusion protein (rhIL-2/SA, code 9333) (ligand)”: the specific bioactivity (CTLL-2 cell/MTT colorimetry) is 2.39e+06 IU/mg.

In the case of “recombinant human serum albumin/interleukin-2 fusion protein (rHSA/IL-2, code 9222) (ligand)”, the specific bioactivity (CTLL-2 cell/MTT colorimetry) is 2.46e+06 IU/mg.
